Experimental data from the supplement of paper PMC11246515.
± gives the standard deviation of the averaged measurements.

Assay: total protein half-life in vivo (active degradation + dilution); higher = more stable protein
[1] = E. coli NCM3722 delta-clpP, growth: N-lim chemostat, doubling time 6 h
[2] = E. coli NCM3722 delta-hslV, growth: N-lim chemostat, doubling time 6 h
[3] = E. coli NCM3722 delta-smpB, growth: N-lim chemostat, doubling time 6 h
[4] = wild type E. coli NCM3722, growth: C-lim chemostat, doubling time 3 h
[5] = wild type E. coli NCM3722, growth: C-lim chemostat, doubling time 6 h
[6] = wild type E. coli NCM3722, growth: C-lim chemostat, doubling time 12 h
[7] = wild type E. coli NCM3722, growth: N-lim chemostat, doubling time 6 h
[8] = wild type E. coli NCM3722, growth: N-lim chemostat, doubling time 12 h
[9] = wild type E. coli NCM3722, growth: P-lim chemostat, doubling time 6 h
[10] = wild type E. coli NCM3722, growth: P-lim chemostat, doubling time 12 h
[11] = E. coli NCM3722 delta-clpP delta-lon delta-hslV, growth: N-lim chemostat, doubling time 6 h
[12] = E. coli NCM3722 delta-lon, growth: N-lim chemostat, doubling time 6 h

| Sequence | total protein half-life in vivo [1] [h] | total protein half-life in vivo [2] [h] | total protein half-life in vivo [3] [h] | total protein half-life in vivo [4] [h] | total protein half-life in vivo [5] [h] | total protein half-life in vivo [6] [h] | total protein half-life in vivo [7] [h] | total protein half-life in vivo [8] [h] | total protein half-life in vivo [9] [h] | total protein half-life in vivo [10] [h] | total protein half-life in vivo [11] [h] | total protein half-life in vivo [12] [h] |
| --- | --- | --- | --- | --- | --- | --- | --- | --- | --- | --- | --- | --- |
| MNIIEANVATPDARVAITIARFNNFINDSLLEGAIDALKRIGQVKDENITVVWVPGAYELPLAAGALAKTGKYDAVIALGTVIRGGTAHFEYVAGGASNGLAHVAQDSEIPVAFGVLTTESIEQAIERAGTKAGNKGAEAALTALEMINVLKAIKA | 6.4 ± 0.16 | 6.59 ± 0.59 | 5.79 ± 0.1 | 3.16 ± 0.054 | 6.41 ± 0.27 | 13.7 ± 0.27 | 6.17 ± 0.85 | 12.8 ± 0.8 | 5.73 ± 0.29 | 13.6 ± 0.3 |  |  |
| MNILLAFKAEPDAGMLAEKEWQAAAQGKSGPDISLLRSLLGADEQAAAALLLAQRKNGTPMSLTALSMGDERALHWLRYLMALGFEEAVLLETAADLRFAPEFVARHIAEWQHQNPLDLIITGCQSSEGQNGQTPFLLAEMLGWPCFTQVERFTLDALFITLEQRTEHGLRCCRVRLPAVIAVRQCGEVALPVPGMRQRMAAGKAEIIRKTVAAEMPAMQCLQLARAEQRRGATLIDGQTVAEKAQKLWQDYLRQRMQP |  |  |  |  |  |  |  |  |  |  | 5.73 ± 0.78 |  |
| MNIQALLSEKVRQAMIAAGAPADCEPQVRQSAKVQFGDYQANGMMAVAKKLGMAPRQLAEQVLTHLDLNGIASKVEIAGPGFINIFLDPAFLAEHVQQALASDRLGVATPEKQTIVVDYSAPNVAKEMHVGHLRSTIIGDAAVRTLEFLGHKVIRANHVGDWGTQFGMLIAWLEKQQQENAGEMELADLEGFYRDAKKHYDEDEEFAERARNYVVKLQSGDEYFREMWRKLVDITMTQNQITYDRLNVTLTRDDVMGESLYNPMLPGIVADLKAKGLAVESEGATVVFLDEFKNKEGEPMGVIIQKKDGGYLYTTTDIACAKYRYETLHADRVLYYIDSRQHQHLMQAWAIVRKAGYVPESVPLEHHMFGMMLGKDGKPFKTRAGGTVKLADLLDEALERARRLVAEKNPDMPADELEKLANAVGIGAVKYADLSKNRTTDYIFDWDNMLAFEGNTAPYMQYAYTRVLSVFRKAEIDEEQLAAAPVIIREDREAQLAARLLQFEETLTVVAREGTPHVMCAYLYDLAGLFSGFYEHCPILSAENEEVRNSRLKLAQLTAKTLKLGLDTLGIETVERM | 4.719 ± 0.0071 | 4.73 ± 0.089 | 4.66 ± 0.21 | 3.13 ± 0.036 | 5.89 ± 0.47 | 10.2 ± 0.2 | 4.48 ± 0.06 | 7.82 ± 0.086 | 6.03 ± 0.33 | 12 ± 0.36 | 5.58 ± 1.2 | 5.12 ± 0.092 |
| MNIQCKRVYDPAEQSDGYRILVDRLWPRGIKKTDLALDEWDKEITPSTELRKAFHGEVVDYATFREQYLAELAQHEQEGKRLADIAKKQPLTLLYSAKNTTQNHALVLADWLRSL | 5.27 | 3.16 ± 0.34 | 3.51 ± 0.47 | 2.37 ± 0.59 | 4.57 | 4.54 ± 0.79 | 3.27 | 4.71 | 3.11 | 5.24 ± 1.4 | 6.74 ± 1.5 | 4.88 ± 0.48 |
| MNIRPLHDRVIVKRKEVETKSAGGIVLTGSAAAKSTRGEVLAVGNGRILENGEVKPLDVKVGDIVIFNDGYGVKSEKIDNEEVLIMSESDILAIVEA [P0A6F9] | 5.34 ± 0.43 | 5.26 ± 0.4 | 5.092 ± 0.02 | 3.051 ± 0.0027 | 6.27 ± 0.87 | 10.6 ± 1.3 | 5.03 ± 0.15 | 8.21 ± 0.97 | 5.36 ± 0.23 | 12.5 ± 1.7 | 5.5416 ± 0.005 | 6.18 ± 0.9 |
| MNITATVLLAFGMSMDAFAASIGKGATLHKPKFSEALRTGLIFGAVETLTPLIGWGMGMLASRFVLEWNHWIAFVLLIFLGGRMIIEGFRGADDEDEEPRRRHGFWLLVTTAIATSLDAMAVGVGLAFLQVNIIATALAIGCATLIMSTLGMMVGRFIGSIIGKKAEILGGLVLIGIGVQILWTHFHG |  | 5.5 |  |  |  |  |  |  |  | 8.23 |  |  |
| MNITPFPTLSPATIDAINVIGQWLAQDDFSGEVPYQADCVILAGNAVMPTIDAACKIARDQQIPLLISGGIGHSTTFLYSAIAQHPHYNTIRTTGRAEATILADIAHQFWHIPHEKIWIEDQSTNCGENARFSIALLNQAVERVHTAIVVQDPTMQRRTMATFRRMTGDNPDAPRWLSYPGFVPQLGNNADSVIFINQLQGLWPVERYLSLLTGELPRLRDDSDGYGPRGRDFIVHVDFPAEVIHAWQTLKHDAVLIEAMESRSLR | 4.38 ± 0.065 | 3.92 ± 0.042 | 3.96 ± 0.27 | > 4 | 5.74 ± 0.29 | 10.9 ± 1.3 | 4.35 ± 0.28 | 6.81 ± 1.1 | 6.023 ± 0.049 | 11.4 ± 0.21 | 5.66 ± 0.067 | 4.66 ± 0.2 |
| MNIVDQQTFRDAMSCMGAAVNIITTDGPAGRAGFTASAVCSVTDTPPTLLVCLNRGASVWPAFNENRTLCVNTLSAGQEPLSNLFGGKTPMEHRFAAARWQTGVTGCPQLEEALVSFDCRISQVVSVGTHDILFCAIEAIHRHTTPYGLVWFDRSYHALMRPAC | 0.819 ± 0.077 | 0.419 | 0.684 ± 0.19 |  |  |  | 0.452 | 1.16 |  |  | 5.375 ± 0.033 | 0.406 |
